# Measured values published in the DeepSol protein solubility set.
# Test: soluble on expression in E. coli; label from the status in PepcDB or PDB records
row,Sequence,soluble on expression in E. coli
1,MAHHHHHHMYLYHSNKCAIKKGIPFFRNVASICFLRKAQNGEEVKRRKVFCSAKFISTISEGRETGCGQANTDQPSTPLGSYTEKSSYKDIKIVENEKEGNDAAEEINQNDIIAVDFEGTNLGKYGKVCIMQVYTEERTREGTPPQSECISREKYYIFDLLKMSVIKSVKKIIENKKTLKLVHDCREDSSALYNQLGIKFENVYDTSRAHMLLMEKNKSNDIYQVSFLQLLNDYLGIKDECLSSIKKEMYKNEKIWQVRPLSKMSIIYALKNVKYLFPLYRIFDNMLPKKIVLEKSKDFVNYCLINSRYKLPVDLAKRGNIVQAMLVSKSMLNCVFKLNSTRKGIACTPSSVAQFRDVKVGDVVLCVVSNKSIDQKILYLCKHDDVFDYWNLKERPRGKFKPSIHESATDPMIQFCDEEQPA,not soluble
2,MAHHHHHHSLNVLKDKLSGKNVKIVLPEGEDERVLTAATQLQATDYVTPIVLGDETKVQSLAQKLDLDISNIELINPATSELKAELVQSFVERRKGKATEEQAQELLNNVNYFGTMLVYAGKADGLVSGAAHSTGDTVRPALQIIKTKPGVSRTSGIFFMIKGDEQYIFGDCAINPELDSQGLAEIAVESAKSALSFGMDPKVAMLSFSTKGSAKSDDVTKVQEAVKLAQQKAEEEKLEAIIDGEFQFDAAIVPGVAEKKAPGAKLQGDANVFVFPSLEAGNIGYKIAQRLGGYDAVGPVLQGLNSPVNDLSRGCSIEDVYNLSIITAAQALQEG,soluble
3,MAHHHHHHSLRLTPLPQPKRIHYMVKVGDTLSGIFAQLGVPYSILQKILSVDLDHLQLDMIQPGEELELMMDDMGQLSRLIYHMSIVEKAIYTRENDGSFSYDFQEISGEWREILFSGEINGSFSVSARRVGLTSSQVANITQVMKDKIDFSRSLRAGDRFDILVKQQYLGEHNTGNSEIKAISFKLAKGDVSAFLAEDGRFYDRAGNSLERAFNRYPVDKAYRQITSGFNPKRKHPVTGRVVPHNGTDFATPIGAPVYSTGDGKVIVVRKHPYAGNYLVIEHNSVYKTRYLHLDKILVKKGQLVKRGQKIALAGATGRLTGPHLHFEVLVRNRPVDAMKADLPIAKSLSSNQKTSFLARVSEFDHLVQANQQEVALDEG,soluble
4,MAHHHHHHSLTTSHILGFPRVGAKRELKFAQERYWRKELAEQDLLDLAKALREKNWKHQAAANADFVAVGDFTFYDHILDLQVATGAIPARFGFDSQNLTLDQYFQLARGNKDQFAIEMTKWFDTNYHYLVPEFQKSTAFKANPAHYVNQIREAKALGLNFKPVIVGPLTFLWLGKEKGEAFNRFDLLNQLVPVYVEILNALVAEGAEWIQIDEPALALDLPAEWVEAYKSVYTELSKVNAKLLLATYFGSVAEHAELLKALPVAGLHLDLVRAPEQLAAFEDYSKVLSAGVIEGRNIWRANLNKVLDVLEPLKAKLGERLWIAPSCSLLHTPFDLEVEVQLKEKNTALYSWLSFTLQKVEELNVLKQALNNGRASVQAALDASQVAADARATSKEIHRPEVAERLANLPKGADQRKSPFAERIVKQNAWLNLPLLPTTNIGSFPQTTEIRHARASFKKGELSLADYEAAMKKEIEYVVRRQEELDLDVLVHGEAERNDMVEYFGELLDGFAFTKFGWVQSYGSRCVKPPVIYGDVTRPEPMTVRWSQYAQSLTNRVMKGMLTGPVTILQWSFVRNDIPRSTVCKQIGVALSDEVLDLEAAGIKVIQIDEPAIREGLPLKRADWDAYLQWAGEAFRLSSMGVQDDTQIHTHMCYSEFNDILPAIAALDADVITIETSRSDMELLTAFADFKYPNDIGPGVYDIHSPRVPTATEVEHLLRKALNVIPKERLWVNPDCGLKTRGWTETIDQLKVMVDVTKKLRAELAEG,soluble
5,MAHVAEWKKKEVEELAKLIKSYPVIALVDVSSMPAYPLSQMRRLIRENGGLLRVSRNTLIELAIKKAAKELGKPELEKLVEYIDRGAGILVTNMNPFKLYKFLQQNRQPAPAKPGAVVPKDVVVPAGPTPLAPGPIVGQMQALGIPARIEKGKVTIQKDTTVLKAGEVITPELANILNALGIQPLEVGLDVLAVYEDGIVYTPDVLAIDEQEYIDMLQKAYMHAFNLAVNIAYPTPETIEAIIQKAFLNAKTVAIEAGYITKETIQDIIGRAFRAMLLLAQQLP,soluble
6,MAIISSLANHLLIAMPSLKDPNFERSVVYLCEHNEQGSVGLIINRPLQFPLSIVFEQLQIEPIRVEKNGLPLLFGGPVQPERGFVIHKQMGGWRSSLFLQDEVTVTTSNDIIRAIAYDEGPKDVLITLGYAAWTEQQLEREIMSNTWLVCPYKSEILYEVPFEERWEYAGLTLGIKMNQLSSDAGHALEHHHHHH,not soluble
7,MAIKLKSPWEIERMREAGALLTEVVEEVARHVEPGVSTWELDQIAYEAIRKRKAKPAFLGLYGFPATLCTSVNEVVVHGIPSKEPLKEGDILSVDVGLIYQGFAADMARTFPVGRVSPEAERLIRDTEAAFWEGMKYLRPGFRLGDVGHAIQTFLESRGYGVVREFVGHGVGREIHEDPQVPNFGKPGTGPKIRPGMTLALEPMVTLRPAPVVILDDGWAASAGRGNLAAHYENTVLVTEEGPELLTGVALARAE,soluble
8,MAILLNRPTLSRLPWFPLRPEDFTTLLQTADFRLRLLEAIAAATRRVYICALYLENEEAGQEMLDALYRAKQRNPQLDVRVMVDWHRAQRGRIGEDQSHCNASWYREEAARRELDIPIYGVPVQTRELFGVLHLKGFVIDDTVFYSGASLNNVYLHKLDKYRFDRYHLIRSPELADAMAGFMAEQFFNDPAVFRLDKPTPSTRSIRKEIRQLRDKLSHSQYRPGSAHAAPDELAISPIVGIGKGNRLNRAILDVIAGAQRRLFICTPYFNFPRAVVLEINRALRRGVEIDIVVGDKTANDFYIPPEQPFRVIGALPYLYEMNLRRFAKRQRQYLSREQLRVRLWKDGDNTYHLKGIWSDDRFILLTGNNLNPRAFRLDLENALLLRDPQGALRGQSAAEQQSILRHTTQLSHYRQLEDVRAYPEQIKKLLTRLSRVRIDRMLNLMLLEHHHHHH,soluble
9,MAINLELPRKLQAIIVKTHQGAAEMMRPIARKYDLKEHAYPVELDTLINLFEGAAESFNFAGAHSLRDEDEGKDENHNGANMAAVVQTMEASWGDVAMMLSLPYQGLGNAAISAVATDEQLERLGKVWAAMAITEPEFGSDSAAVSTTATLDGDEYVINGEKIFVTAGSRATHIVVWATLDKSLGRPAIKSFIVPREHPGVTVERLEHKLGIKGSDTAVIRFDNARIPKGNLLGNPEIEVGKGFAGVMETFDNTRPIVAAMAVGIGRAALEEIRSVLTGAGVEISYDKPSHTQSAAAAEFLRMEADWEASYLLSLRAAWQADNNIPNSKEASMSKAKAGRMASDVTCKTVELAGTTGYSEQSLLEKWARDSKILDIFEGTQQIQQLVVARRLLGLSSSELK,not soluble
10,MAIPKLQAYALPESHDIPQNKVDWAFEPQRAALLIHDMQDYFVSFWGENCPMMEQVIANIAALRDYCKQHNIPVYYTAQPKEQSDEDRALLNDMWGPGLTRSPEQQKVVDRLTPDADDTVLVKWRYSAFHRSPLEQMLKESGRNQLIITGVYAHIGCMTTATDAFMRDIKPFMVADALADFSRDEHLMSLKYVAGRSGRVVMTEELLPAPIPASKAALREVILPLLDESDEPFDDDNLIDYGLDSVRMMALAARWRKVHGDIDFVMLAKNPTIDAWWKLLSREVK,not soluble
11,MAISDWPEAERPREKLIEKGAAALSDAELLAIFLRTGITGVSAVELARKLLTHFGSLTKLCAASLHEFSELPGMGPAKFAQLQAVMEMAKRALAEELKNGDIMDSPQSVRNYLCLSLKGKPYEVFVGIFLDARHRTIVTEELFNGTLTQASVYPREVVKRALYHNAAAMIFAHNHPSGIAEPSTADEILTQSLKQALALVDVKVLDHFVIGSSEVVSFAERGLI,not soluble
12,MAITAQMVKELREKTGAGMMDCKKALTETNGDMEKAIDFLREKGIAKAAKKADRIAAEGLTFIETNGNDGLILELNSETDFVAKNEGFQTLIKELAAHLLANKPANVEEAMAQTMENGKKVEEHINEAIAKIGEKLTLRRFEIVSKTDADAFGAYLHMGGRIGVLTVLEGSTDEAAAKDVAMHIAAVNPKYIDRDAVTAEEVEHERQVLTQQALNEGKPEKIVAKMVEGRLGKFFEEICLLDQAFVKNPDMKVRQFVESKGGTLKGFVRYAVGEGIEKREDNFAEEVMNQVKGSN,not soluble
13,MAITIQNHELQVTLKALGATMTSITDSQGVEYLWQGDATYWGGQAPILFPICGSVRNDCVIYRPAQAPHFTGIIPRHGFVRHKTFDYDYISDSSVRFTIKSSKEMLINYPYRFSLEITYTLRNKSIAITYIVKNLESEKNMPYAIGAHPGFNCPLFEKEVFSDYYLEFEQFETCTIPESFPDTGLLDLQARHPFLENQKQLSLNHALFEKDAITLDQLRSKTVYLKSRNHAKGIQLDFDDFENLILWTSNNGGPFLALEPWSSLSTSIEESDILEDKQNIVRLNPKQSKQHSIRITILLEHHHHHH,soluble
14,MAIVSFKHKGLKLFYTTGSTKAIRPDHVKKLRVILTALTSATCPEMLKAPAFKMHPLKGELTGYYSIWVNGNWRVTFRFIGTDVELVDYQDYH,not soluble
15,MAKAQLSQNGEARAWQRMLSGRRLDLLNPSPFDIEIEDIAHGLARVARWNGQTQGEYAYSVAQHSLLVEQIFQKLFPQSQNNECLCALLHDAPEYVIGDIISPFKAVIGKQYELIEKRIQDAIHMRFSLPVAPSQKLLKKIKQADRIAAFHESIILAGFNTEEALRYFGHPNNISPEGLNLQPCSTTKIENAFLKRFHDLDVERLH,not soluble
16,MAKKKTKFTCQECGYQSPKYMGKCPGCGQWNSLVEEMEPVVSSRRLNYANAIQTEVTKPRRLTEVETKSEARIETKFQEFNRVLGGGIVDGSLVLIGGDPGIGKSTLLLQISSQLADASYDVLYISGEESAKQIKLRADRLHVNGSNLFVVSETDLQRIAAHIEEMNPAFVVIDSIQTIHLPEVTSAPGSVAQVRECTAELMKLAKTKGIPIFIVGHVTKEGAIAGPRMLEHMVDAVLYFEGDRHHTYRILRAVKNRFGSTNEMGIFEMKELGLAEVLNPSEIFLEERPVGVAGSTVVASMEGTRPVLVEIQALISPTSFGNPRRMATGIDHNRVSLIMAVLEKRTGLLLQNQDAYLKVAGGLKLDEPAIDLAVALSIASSFRDKSTAPTDAVIGEVGLTGEIRRVSRIEQRVQEAAKLGFQRAIIPRKNLGGWTIPEGIEVVGVSNLGEALRLTLGG,not soluble
17,MAKKNNKTKIQKPEAALQTDVAQITATGRVIAEHPSNFITPQKMRALFEDAESGDIRAQHELFADIEERDSDIAANMGTRKRALLTLNWRVAPPRNATPEEEKLSDQAYEMMDSLPTLEDLIMDLMDAVGHGFSALEVEWVFSDGLYLPRNFIHRPQSWFKWDKDNGLLLRTRENPEGEALWPLGWVVHTQKSRSVQQARNGLFRTLSWLYMFKHYAVHDFAEFLELYGMPIRIGKYGAGATKEEKNTLLRAVAEIGHNAAGIMPEGMEIELHNAANGTTATSNPFLQMADWCEKSAARLILGQTLTSGADGKSSTNALGNIHNEVRRDLLVSDAKQVAQTITSQIIGPFLQINYPHADPNRVPKFEFDTREPKDIAVFADAIPKLVDVGVQIPESWVRDKLVIPDVQEGEAVLVRQVPDNPVNRTALAALSAHTVPSKATGRHQEILDGALDDALVEPDFNSQLNPMVRQAVAALNACNSYEEADAALNALYPNLDNAKLRTYMQQALFISDILGQDHARA,not soluble
